System: T1, His-tagged full length BAAT1 (baculovirus, produced in Sf9 cells)
T1 sequence: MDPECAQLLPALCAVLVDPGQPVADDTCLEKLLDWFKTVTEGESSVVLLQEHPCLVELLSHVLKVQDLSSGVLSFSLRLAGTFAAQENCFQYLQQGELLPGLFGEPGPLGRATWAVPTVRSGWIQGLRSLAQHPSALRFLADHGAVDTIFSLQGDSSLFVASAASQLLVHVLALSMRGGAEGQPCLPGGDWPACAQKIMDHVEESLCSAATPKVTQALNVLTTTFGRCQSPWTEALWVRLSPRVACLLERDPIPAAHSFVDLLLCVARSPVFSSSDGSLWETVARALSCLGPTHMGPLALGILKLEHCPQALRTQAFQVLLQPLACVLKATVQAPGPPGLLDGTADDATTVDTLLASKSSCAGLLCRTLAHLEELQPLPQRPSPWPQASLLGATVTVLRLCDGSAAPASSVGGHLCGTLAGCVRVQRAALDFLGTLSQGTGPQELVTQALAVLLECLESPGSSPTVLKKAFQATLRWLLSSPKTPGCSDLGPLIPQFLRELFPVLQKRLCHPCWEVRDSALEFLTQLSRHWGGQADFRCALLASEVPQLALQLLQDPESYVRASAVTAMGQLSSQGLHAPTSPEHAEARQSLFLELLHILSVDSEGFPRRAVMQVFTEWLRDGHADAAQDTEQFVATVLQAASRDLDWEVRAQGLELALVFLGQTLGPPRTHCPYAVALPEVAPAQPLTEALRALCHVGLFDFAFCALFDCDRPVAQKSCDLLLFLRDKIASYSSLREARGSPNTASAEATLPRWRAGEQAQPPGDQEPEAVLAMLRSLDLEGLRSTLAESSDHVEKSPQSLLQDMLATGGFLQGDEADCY

## ataxia telangiectasia mutated (endogenous, from human cell lysates)
  in vitro PP2A phosphatase assay on immunoprecipitated ATM, Ser1981 phosphorylation by immunoblot: dephosphorylation of ATM Ser1981 was partially blocked in the presence of full length, baculovirus produced BAAT1

Source: patent US20070072210
